Measurements: PMC9521185, “Self-assembly and label-free fluorescent aptasensor based on deoxyribonucleic acid intercalated dyes for detecting lactoferrin in milk powder”

Molecular target: lactoferrin (LF) (bovine (milk), UniProt P24627 20-708)
Experiment: PicoGreen dye-displacement fluorescence; PicoGreen; LF 100 nM and 1 uM; linear 20-500 nM, LOD 3 nM; Buffer, salt, pH and temperature not in the material; fluorescence ex 485 nm / em 528 nm, microplate reader
Conditions: protein: commercial; label: none (label-free; PicoGreen intercalated)

lactoferrin (LF), sequence (P24627 20-708): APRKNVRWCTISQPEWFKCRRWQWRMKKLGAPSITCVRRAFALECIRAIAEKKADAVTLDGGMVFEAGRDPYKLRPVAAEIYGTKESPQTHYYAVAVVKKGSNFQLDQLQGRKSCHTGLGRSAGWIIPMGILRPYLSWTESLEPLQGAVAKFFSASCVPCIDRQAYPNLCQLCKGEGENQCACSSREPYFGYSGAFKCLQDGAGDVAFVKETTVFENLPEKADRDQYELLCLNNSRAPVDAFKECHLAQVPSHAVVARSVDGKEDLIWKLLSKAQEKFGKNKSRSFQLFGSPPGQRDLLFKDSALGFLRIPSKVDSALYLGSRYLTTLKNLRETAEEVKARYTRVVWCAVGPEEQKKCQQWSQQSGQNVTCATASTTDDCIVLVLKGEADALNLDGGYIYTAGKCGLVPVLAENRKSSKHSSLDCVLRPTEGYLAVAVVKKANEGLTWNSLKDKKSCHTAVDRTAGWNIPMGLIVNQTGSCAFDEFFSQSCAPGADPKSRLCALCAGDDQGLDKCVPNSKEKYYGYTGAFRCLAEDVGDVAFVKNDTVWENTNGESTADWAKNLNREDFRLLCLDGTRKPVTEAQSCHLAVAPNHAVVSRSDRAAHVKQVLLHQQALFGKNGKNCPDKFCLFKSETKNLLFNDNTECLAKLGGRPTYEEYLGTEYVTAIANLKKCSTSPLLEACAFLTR

B1: LF aptamer (ssDNA)
DNA: TGGTGCTGCCCCTAGTCTCCGGCTGATAGCTGCTTCTTGG
  binding result: binds
